Measurements: US20240301052A1 (LANOVA MEDICINES DEVELOPMENT, published 2024)
Read-outs that look alike come from different tables or passages of the source.

T1: human SLC34A2 (human, UniProt O95436 1-690)
T1 construct: whole, on cells; also called human solute carrier 34 A2; NaPi2b
T1 sequence (looked up): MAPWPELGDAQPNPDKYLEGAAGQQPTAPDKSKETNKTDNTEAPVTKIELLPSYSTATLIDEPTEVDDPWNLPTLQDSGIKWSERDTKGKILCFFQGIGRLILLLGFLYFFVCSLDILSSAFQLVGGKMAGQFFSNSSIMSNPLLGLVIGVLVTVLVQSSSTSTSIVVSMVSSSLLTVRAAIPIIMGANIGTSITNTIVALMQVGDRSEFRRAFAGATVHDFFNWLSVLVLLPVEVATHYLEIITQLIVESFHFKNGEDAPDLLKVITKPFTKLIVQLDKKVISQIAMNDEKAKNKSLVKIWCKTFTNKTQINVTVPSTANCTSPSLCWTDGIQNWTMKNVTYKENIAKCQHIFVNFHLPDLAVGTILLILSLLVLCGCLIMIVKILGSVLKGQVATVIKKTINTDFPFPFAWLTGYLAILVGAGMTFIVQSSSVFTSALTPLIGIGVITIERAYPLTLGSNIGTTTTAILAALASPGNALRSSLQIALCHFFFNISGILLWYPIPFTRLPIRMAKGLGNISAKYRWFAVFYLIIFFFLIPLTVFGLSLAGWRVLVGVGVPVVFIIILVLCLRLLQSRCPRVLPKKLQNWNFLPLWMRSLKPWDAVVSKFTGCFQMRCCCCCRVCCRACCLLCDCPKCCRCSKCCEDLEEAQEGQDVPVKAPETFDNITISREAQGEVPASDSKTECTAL

T2: Rhesus SLC34A2 (Rhesus, UniProt F7HDA3 1-690)
T2 construct: whole, on cells
T2 sequence: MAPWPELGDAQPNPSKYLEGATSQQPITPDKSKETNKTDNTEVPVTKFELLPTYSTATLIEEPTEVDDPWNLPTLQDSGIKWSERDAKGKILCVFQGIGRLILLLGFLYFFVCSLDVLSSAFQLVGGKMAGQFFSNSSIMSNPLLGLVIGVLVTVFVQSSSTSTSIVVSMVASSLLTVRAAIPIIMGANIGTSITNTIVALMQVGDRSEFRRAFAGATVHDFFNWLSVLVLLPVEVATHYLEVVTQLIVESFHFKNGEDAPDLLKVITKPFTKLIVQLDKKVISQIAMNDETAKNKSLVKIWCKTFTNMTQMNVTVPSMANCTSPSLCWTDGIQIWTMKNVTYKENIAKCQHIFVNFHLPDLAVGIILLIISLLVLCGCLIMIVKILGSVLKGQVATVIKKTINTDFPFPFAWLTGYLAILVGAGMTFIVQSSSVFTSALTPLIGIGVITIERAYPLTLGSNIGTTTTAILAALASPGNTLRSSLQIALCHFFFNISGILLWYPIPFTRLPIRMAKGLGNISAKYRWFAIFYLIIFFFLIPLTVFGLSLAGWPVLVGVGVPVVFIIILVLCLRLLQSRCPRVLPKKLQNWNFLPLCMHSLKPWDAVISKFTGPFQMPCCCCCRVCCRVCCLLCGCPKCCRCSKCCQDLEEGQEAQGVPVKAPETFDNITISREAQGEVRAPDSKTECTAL


Columns and labels:
human SLC34A2 [1] = molecular target: T1, human SLC34A2; assay: FACS, RMG-1 cells
Experimental: (§1) In another testing, cell based binding of hu Abs on human SLC34A2 expressing cells were assessed using flow cytometry. Briefly, the HEK293/H_SLC34A2, OVCAR3 and RMG-1 cells were incubated with hu Abs. After incubation at 4° C. for 60 minutes, the cells were washed with FACS buffer twice, then stained with fluorescent conjugated secondary antibody at 4° C. for 30 minutes. After that the cells were washed twice and analyzed by flow cytometry.

human SLC34A2 [2] = molecular target: T1, human SLC34A2; assay: FACS, OVCAR3 cells
Experimental: The binding of these humanized antibodies to OVCAR3 cells was evaluated as described above, and the results are shown in FIG. 12A-D and Tables 16A-D.

human SLC34A2 [3] = molecular target: T1, human SLC34A2; assay: FACS, OVCAR3 cells; remark: listed apart in the source
Experimental: as §1

human SLC34A2 [4] = molecular target: T1, human SLC34A2; assay: cell-based or functional assay
human SLC34A2 [5] = molecular target: T1, human SLC34A2; assay: FACS, HEK293/human SLC34A2 cells
Experimental: as §1

Rhesus SLC34A2 = molecular target: T2, Rhesus SLC34A2; assay: FACS, HEK293/Rhesus SLC34A2 cells
human SLC34A2 [6] = molecular target: T1, human SLC34A2; assay: FACS, OVCAR3 cells; remark: listed apart in the source
human SLC34A2 [7] = molecular target: T1, human SLC34A2; assay: FACS, OVCAR3 cells; remark: listed apart in the source

Row | EC50 (human SLC34A2 [1]) | Top (human SLC34A2 [1]) | EC50 (human SLC34A2 [2]) | Top (MFI) (human SLC34A2 [2]) | EC50 (human SLC34A2 [3]) | ADCC reporter EC50 (human SLC34A2 [4]) | ADCC reporter Top (MFI) (human SLC34A2 [4]) | EC50 (human SLC34A2 [5]) | Top (human SLC34A2 [5]) | EC50 (Rhesus SLC34A2) | Top (MFI) (Rhesus SLC34A2) | EC50 (human SLC34A2 [6]) | Top (MFI) (human SLC34A2 [6]) | EC50 (human SLC34A2 [7]) | Top (MFI) (human SLC34A2 [7]) | Binder
1 | 0.73 nM | 10900 MFI | 1.03 nM | 28400 MFI | 0.62 nM | 0.96 nM | 143000 MFI | 1.05 nM | 33000 MFI | 0.8 nM | 15600 MFI |  |  |  |  | 30H9B8F9.p1.z13 hIgG1 (antibody, V domains shown, humanized hIgG1) VH: QVQLVQSGAEVVKPGASVKMSCKTSGYTFTTNNMHWVKQAPGQGLEWIGAIYPGSGATAYNQKFKGRATLTADKSTSTAYMELSSLRSEATAVYYCARGMYGHGAMDYWGQGTSVTVSS VL: DIQLTQSPSFLSASVGDRVTITCKASQDVGTAVAWYQQKPGKAPKLLIYWATTRHSGVPSRFSGSGSGTEFTLTISSLQPEDFATYYCQQYSSNPLTFGQGTKLEIK
2 | 1.78 nM | 10400 MFI | 1.62 nM | 28400 MFI | 1.1 nM | 1.25 nM | 135000 MFI | 1.94 nM | 33600 MFI | 1.1 nM | 15100 MFI |  |  |  |  | 30H9B8F9.p1.z6 hIgG1 (antibody, V domains shown, humanized hIgG1) VH: QVQLVQSGAEVKKPGASVKVSCKTSGYTFTTNNMHWVRQAPGQGLEWIGAIYPGSGATAYNQKFKGRVTMTADTSTSTVYMELSSLRSEDTAVYYCARGMYGHGAMDYWGQGTLVTVSS VL: DIQLTQSPSFLSASVGDRVTITCKASQDVGTAVAWYQQKPGKSPKLLIYWATTRHSGVPDRFSGSGSGTEFTFTISSLQPEDFATYFCQQYSSNPLTFGQGTKLEIK
3 | 1.4 nM | 11600 MFI | 1.59 nM | 29400 MFI | 1.08 nM | 1.53 nM | 145000 MFI | 1.81 nM | 34200 MFI | 0.9 nM | 16300 MFI |  |  |  |  | 30H9B8F9.p1.z9 hIgG1 (antibody, V domains shown, humanized hIgG1) VH: QVQLVQSGAEVVKPGASVKVSCKTSGYTFTTNNMHWVRQAPGQGLEWIGAIYPGSGATAYNQKFKGRVTLTADKSTSTAYMELSSLRSEATAVYYCARGMYGHGAMDYWGQGTLVTVSS VL: DIQLTQSPSFLSASVGDRVTITCKASQDVGTAVAWYQQKPGKAPKLLIYWATTRHSGVPSRFSGSGSGTEFTLTISSLQPEDFATYYCQQYSSNPLTFGQGTKLEIK
4 | 36.2 nM | 11800 MFI |  |  | 13.5 nM | 0.95 nM | 116000 MFI | 4.8 nM | 35900 MFI | 3.9 nM | 11100 MFI | 13.5 nM | 28200 MFI |  |  | 63A11D5B4.p1.z5 hIgG1 (antibody, V domains shown, humanized hIgG1) VH: QVQLVQSGAEVKKPGASVKVSCKTSGYTFITYNMHWVRQAPGQGLEWIGAIYPGSGDTSYNQKFKGRVTMTADTSTSTVYMELSSLRSEDTAVYYCSISTIITTGAVDYWGQGTLVTVSS VL: DIQMTQSPSSLSASVGDRVTITCKASQDVGTAVAWYQQKPGKVPKLLIYWTSTRHTGVPSRFSGSGSGTDFTLTISSLQPEDVATYYCQQYSRIPLTFGGGTKVEIK
5 |  |  |  |  |  |  |  |  |  |  |  |  |  | 3.87 nM | 36200 MFI | 91C9F1.p1.z14 hIgG1 (antibody, V domains shown, humanized hIgG1) VH: QVQLVQSGAEVVKPGSSVKISCKTSGFFFTEYIIHWVKQSPGQGLEWIGGIIPNNDVTNYKQNFRGRATLTADKSTNTAYMELRSSLRSEDTAVYYCARWRNAYYSAMDSWGQGTTVTVSS VL: DIQMTQSPSSLSTSVGDRVTITCTASQDVGTAVAWYQQKPGKSPKLLIYWASTRHTGVPERFSGSGSGTDFTLTISSLQPEDVATYFCQQYRTSPLTFGGGTKVEIK
6 |  |  |  |  |  |  |  |  |  |  |  |  |  | 2.13 nM | 35700 MFI | 91C9F1.p1.z8 hIgG1 (antibody, V domains shown, humanized hIgG1) VH: QVQLVQSGAEVKKPGSSVKVSCKTSGFFFTEYIIHWVRQAPGQGLEWIGGIIPNNDVTNYKQNFRGRVTLTADKSTSTAYMELSSLRSEDTAVYYCARWRNAYYSAMDSWGQGTTVTVSS VL: DIVVTQSPSSLSTSVGDRVTITCTASQDVGTAVAWYQQKPGKSPKLLIYWASTRHTGVPERFTGSGSGTDFTLTISSVQPEDVATYFCQQYRTSPLTFGVGTKLELK
7 |  |  |  |  |  |  |  |  |  |  |  |  |  | 1.77 nM | 34500 MFI | 91C9F1.p1.z12 hIgG1 (antibody, V domains shown, humanized hIgG1) VH: QVQLVQSGAEVVKPGSSVKVSCKTSGFFFTEYIIHWVRQSPGQGLEWIGGIIPNNDVTNYKQNFRGRATLTADKSTSTAYMELSSLRSEDTAVYYCARWRNAYYSAMDSWGQGTTVTVSS VL: DIVVTQSPSSLSTSVGDRVTITCTASQDVGTAVAWYQQKPGKSPKLLIYWASTRHTGVPERFTGSGSGTDFTLTISSVQPEDVATYFCQQYRTSPLTFGVGTKLELK
8 | 40.6 nM | 13200 MFI |  |  | 9.23 nM | 1.47 nM | 122000 MFI | 7.12 nM | 37000 MFI | 4.7 nM | 10300 MFI | 9.23 nM | 30200 MFI |  |  | 63A11D5B4.p1.z15 hIgG1 (antibody, V domains shown, humanized hIgG1) VH: QVQLQQSGAEVVKPGASVKMSCKTSGYTFITYNMHWVKQAPGQGREWIGAIYPGSGDTSYNQKFKGRATLTADKSTSTAYMELSSLRSEDTAVYYCSISTIITTGAVDYWGQGTSVTVSS VL: DIQMTQSPSSLSTSVGDRVTITCKASQDVGTAVAWYQQKPGQSPKLLIYWTSTRHTGVPDRFSGSGSGTDFTLIIRSLQPEDVATYFCQQYSRIPLTFGGGTKVEIK
9 |  |  |  |  |  |  |  |  |  |  |  |  |  | 2.95 nM | 36900 MFI | 91C9F1.p1.z5 hIgG1 (antibody, V domains shown, humanized hIgG1) VH: QVQLVQSGAEVKKPGSSVKVSCKTSGFFFTEYIIHWVRQAPGQGLEWIGGIIPNNDVTNYKQNFRGRVTLTADKSTSTAYMELSSLRSEDTAVYYCARWRNAYYSAMDSWGQGTTVTVSS VL: DIQMTQSPSSLSASVGDRVTITCTASQDVGTAVAWYQQKPGKVPKLLIYWASTRHTGVPSRFSGSGSGTDFTLTISSLQPEDVATYYCQQYRTSPLTFGGGTKVEIK
10 |  |  |  |  |  |  |  |  |  |  |  |  |  | 1.41 nM | 31000 MFI | 91C9F1.p1.z11 hIgG1 (antibody, V domains shown, humanized hIgG1) VH: QVQLVQSGAEVVKPGSSVKVSCKTSGFFFTEYIIHWVRQSPGQGLEWIGGIIPNNDVTNYKQNFRGRATLTADKSTSTAYMELSSLRSEDTAVYYCARWRNAYYSAMDSWGQGTTVTVSS VL: DIQVTQSPSSLSTSVGDRVTITCTASQDVGTAVAWYQQKPGKSPKLLIYWASTRHTGVPERFTGSGSGTDFTLTISSVQPEDVATYFCQQYRTSPLTFGVGTKVEIK
11 |  |  |  |  |  |  |  |  |  |  |  |  |  | 2.72 nM | 37000 MFI | 91C9F1.p1.z9 hIgG1 (antibody, V domains shown, humanized hIgG1) VH: QVQLVQSGAEVVKPGSSVKVSCKTSGFFFTEYIIHWVRQSPGQGLEWIGGIIPNNDVTNYKQNFRGRATLTADKSTSTAYMELSSLRSEDTAVYYCARWRNAYYSAMDSWGQGTTVTVSS VL: DIQMTQSPSSLSASVGDRVTITCTASQDVGTAVAWYQQKPGKVPKLLIYWASTRHTGVPSRFSGSGSGTDFTLTISSLQPEDVATYYCQQYRTSPLTFGGGTKVEIK
